Data on two molecules can be found in US20110130449A1 (ISIS INNOVATION, published 2011).

Assay [1] concerns the target TAP-tagged Jmjd6 fusion protein (human). Description: tandem affinity purification of TAP-tagged Jmjd6 from HEK293T cells, MS identification.
In assay [2] the target is Jmjd6 active site mutant ASM1 (GFP fusion) (human, UniProt Q5R6G2 1-403). Description: GFP nanotrap pulldown, Western blot.
For assay [3], the target named is Jmjd6 with an N-terminal deletion of seven amino acids (GFP fusion) (human, UniProt Q5R6G2 8-403). Description: GFP nanotrap pulldown, Western blot. (Immunoblotting shows a protein as a band on a membrane.)

B1: cisplatin resistance-associated overexpressed protein (CROP) (other)
chain: MISAAQLLDELMGRDRNLAPDEKRSNVRWDHESVCKYYLCGFCPAELFTNTRSDLGPCEKIHDENLRKQYEKSSRFMKVGYERDFLRYLQSLLAEVERRIRRGHARLALSQNQQSSGAAGPTGKNEEKIQVLTDKIDVLLQQIEELGSEGKVEEAQGMMKLVEQLKEERELLRSTTSTIESFAAQEKQMEVCEVCGAFLIVGDAQSRVDDHLMGKQHMGYAKIKATVEELKEKLRKRTEEPDRDERLKKEKQEREEREKEREREREERERKRRREEEEREKERARDRERRKRSRSRSRHSSRTSDRRCSRSRDHKRSRSRERRRSRSRDRRRSRSHDRSERKHRSRSRDRRRSKSRDRKSYKHRSKSRDREQDRKSKEKEKRGSDDKKSSVKSGSREKQSEDTNTESKESDTKNEVNGTSEDIKSEGDTQSN
notes: also called CROP protein
Regarding B1, the binding result in assay [1] was “binds”.

B2: Splicing factor U2AF 65 kD subunit (other)
chain: SDFDEFERQLNENKQERDKENRHRKRSHSRSRSRDRKRRSRSRDRRNRDQRSASRDRRRRSKPLTRGAKEEHGGLIRSPRHEKKKKVRKYWDVPPPGFEHITPMQYKAMQAAGQIPATALLPTMTPDGLAVTPTPVPVVGSQMTRQARRLYVGNIPFGITEEAMMDFFNAQMRLGGLTQAPGNPVLAVQINQDKNFAFLEFRSVDETTQAMAFDGIIFQGQSLKIRRPHDYQPLPGMSENPSVYVPGVVSTVVPDSAHKLFIGGLPNYLNDDQVKELLTSFGPLKAFNLVKDSATGLSKGYAFCEYVDINVTDQAIAGLNGMQLGDKKLLVQRASVGAKNATLVSPPSTINQTPVTLQVPGLMSSQVQMGGHPTEVLCLMNMVLPEELLDDEEYEEIVEDVRDECSKYGLVKSIEIPRPVDGVEVPGCGKIFVEFTSVFDCQKAMQGLTGRKFANRVVVTKYCDPDSYHRRDFW
notes: also called U2 snRNP auxiliary factor 65 KDa subunit
For the molecule B2, the binding result was “no binding” in assay [2], “no binding” in assay [3] and “binds” in assay [1].
